Measurements published in publication PMC2194124 (The Journal of Experimental Medicine, 2003).

Target: Isolated Mac-1 (αMβ2, CD11b/CD18) (UniProt P11215 17-1152; P05107 23-769)
Experiment: ELISA

IC50: ~175 nM
B1: Recombinant soluble mouse RAGE (receptor)
chain: GQNITARIGEPLVLSCKGAPKKPPQQLEWKLNTGRTEAWKVLSPQGGPWDSVARILPNGSLLLPATGIVDEGTFRCRATNRRGKEVKSNYRVRVYQIPGKPEIVDPASELTASVPNKVGTCVSEGSYPAGTLSWHLDGKLLIPDGKETLVKEETRRHPETGLFTLRSELTVIPTQGGTHPTFSCSFSLGLPRRRPLNTAPIQLRVREPGPPEGIQLLVEPEGGIVAPGGTVTLTCAISAQPPPQVHWIKDGAPLPLAPSPVLLLPEVGHEDEGTYSCVATHPSHGPQESPPVSIRVTETGDEGPAEGSVGESGLGTLA
